The results in this text go back to patent US20040091487A1 (ALBERT EINSTEIN COLLEGE OF MEDICINE OF YESHIVA UNIVERSITY, published 2004).

Changes are numbered by the printed parent chain.

To fix the notation:
T1: GAL4AC-IN-2 (HIV-2, UniProt P04584 1172-1464)
T1 construct: domain: integrase
T1 sequence: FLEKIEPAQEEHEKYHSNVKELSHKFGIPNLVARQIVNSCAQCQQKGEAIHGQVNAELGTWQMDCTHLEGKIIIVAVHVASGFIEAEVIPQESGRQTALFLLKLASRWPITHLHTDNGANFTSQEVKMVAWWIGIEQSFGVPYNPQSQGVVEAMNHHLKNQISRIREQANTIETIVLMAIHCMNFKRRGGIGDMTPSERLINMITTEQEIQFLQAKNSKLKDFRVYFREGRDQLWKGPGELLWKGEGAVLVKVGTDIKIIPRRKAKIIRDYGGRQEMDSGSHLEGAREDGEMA

B1: GAL4-AC fusion of S6 mutant E3 (other)
chain: PEVLVPIRLDMEIDGQKLRDAFTWNMNEKLMTPEMFSEILCGDLDLNPLTFVPAIASAIRQQIESYPTDSILEDQSDQRVIIKLNIHVGNISLVDQFEWDMSEKENSPEKFA
notes: also called pGADNot-E3
B2: GAL4-AC fusion of S6 mutant E10 (other)
chain: B1 chain with G42D, D45G
B3: GAL4-AC fusion of S6 mutant E4 (other)
chain: B1 chain with T32A, G42D
B4: LexADB (other, UniProt P0A7C2 1-87, looked up)
chain: MKALTARQQEVFDLIRDHISQTGMPPTRAEIAQRLGFRSPNAAEEHLKALARKGVIEIVSGASRGIRLLQEEEEGLPLVGRVAAGEP
notes: Negative control of the two-hybrid assay; also called LexADB alone
B5: GAL4AC (other, UniProt P04386 768-881, looked up)
chain: ANFNQSGNIADSSLSFTFTNSSNGPNLITTQTNSQALSQPIASSNVHDNFMNNEITASKIDDGNNSKPLSPGWTDQTAYNAFGITTGMFNTTTMDDVYNYLFDDEDTPPNPKKE
notes: Negative control of the two-hybrid assay; also called GAL4AC alone

Test [1] has as its target T2, LexADB-IN-1 (HIV-1, UniProt P0A7C2 1-87; P04585 1148-1435).
T2 construct: Yeast two-hybrid fusion
In words: reverse yeast two-hybrid, X-Gal staining.

For test [2], the target named is T3, GAL4AC-IN-1 (HIV-1, UniProt P04585 1148-1435).
T3 construct: domain: integrase
In words: yeast two-hybrid, β-Gal staining.
Excerpt: (§1) To determine the specificity of interaction of INI1 with retroviral INs, we first examined the interaction of various INs with INI1/hSNF5 using the yeast two-hybrid system. […] The transformants were stained with X-GAL to detect positive interactions between the various retroviral INs and INI1/hSNF5.

In test [3] the target is T1, GAL4AC-IN-2. In words: yeast two-hybrid, β-Gal staining.
Excerpt: as §1
In test [4] the target is B5. Nature of the test: yeast two-hybrid, β-Gal staining.
Excerpt: as §1
For test [5], the target named is T2, LexADB-IN-1. In words: yeast two-hybrid, β-Gal staining.
Excerpt: as §1
Test [6] deals with T4, LexADB-INI1/hSNF5 (human, UniProt P0A7C2 1-87 (Escherichia coli entry), limits assumed).
T4 construct: also called pSH2-INI1
In words: yeast two-hybrid, β-Gal staining.
Excerpt: as §1

Regarding B1, in test [1], the binding result is on record as “no binding”. As to B2, in test [1], the binding result was “no binding”. B3: the binding result in test [1] is “no binding”. For the molecule B4, the binding result in test [2], in test [3] and in test [4] was “no binding” each time. As for B5, the binding result in test [5] and in test [6] was “no binding” throughout.
